From the supplement of paper PMC10567573

B1: CDKL4 (parent)
chain: AVKKFVESEDDPVVKKIALREIRM
B2: SPOPL (parent)
chain: YTGRAPNLDKMADNLLAAADKYAL

Variants of: B1
Assay: protein stability index of a GFP-peptide fusion (GPS, HEK-293T) (PSI 1-6); higher = more stable
Conditions: c terminus: a fixed tail appended
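Also: lentivirally expressed fusions sorted by FACS into six bins by GFP to DsRed ratio, PSI derived from sequencing read proportions per bin multiplied by bin number.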

Protein stability index of substitutions, site by site:
D11: P 2.81, M 2.44, F 2.25, N 3.19, W 3.34, Y 2.46, V 2.44, K 3.22, R 2.61, H 2.96, C 2.16, I 2.58, S 2.87, A 2.61, Q 2.81, G 1.8, T 3, L 1.81, E 3.15
K16: T 3.11, G 3.57, R 3.18, A 3.77, I 2.19, P 2.61, M 3.17, W 2.05, Y 2.44, L 2.63, S 3.23, D 3.48, F 2.77, E 3.95, V 2.27, Q 3.48, C 2.92, H 3.22, N 3.52
S8: C 2.54, F 2.08, I 2.54, L 1.91, T 3.14, H 3.02, P 2.7, V 2.64, E 3.07, R 2.43, N 3.32, K 3.15, Q 3.27, D 3.12, W 2.24, M 3.04, Y 3.17, G 2.68
M24: E 3.41, C 2.76, V 3.36, G 3.07, S 3.71, K 3.11, Q 3.92, T 3.15, N 2.95, D 3.73, W 2.48, R 3.23, P 3.43, I 2.97, Y 3.86, H 3.59, F 2.6, L 2.74
V14: M 2.69, F 2.01, N 3.5, H 3.38, D 3.48, C 3.74, G 2.97, P 3.12, A 3.01, S 2.98, E 4.1, T 3.26, R 3.44, K 2.82, L 2.89, W 2.65, I 2.56, Y 2.54, Q 3.71
R20: G 3.03, P 2.87, W 2.43, L 2.44, T 2.88, A 3.21, N 3.74, C 2.92, I 1.39, H 2.63, F 1.5, S 3.19, E 3.74, Y 2.25, V 1.46, D 3.56, Q 3.49, K 3.67, M 2.13
D10: C 2.15, Y 1.84, L 1.68, N 2.91, V 2.23, F 1.77, P 2.72, K 2.68, G 3.07, E 2.99, A 2.58, I 1.81, T 2.78, W 2.16, R 3.15, Q 2.8, M 2.65, S 2.83, H 2.82
P12: Y 2.18, G 2.57, C 3.05, L 2.55, D 3.22, T 2.76, I 2.52, K 3.23, N 3.08, S 2.99, Q 2.45, H 2.77, V 2.48, R 3.46, M 1.95, W 1.82, F 2.66, A 3.04, E 3.88
I17: L 2.57, K 3.87, C 3.32, T 4.48, S 4.28, N 3.7, R 3.45, V 3.22, F 2.79, G 3.08, M 2.87, Y 2.85, D 4.36, E 3.93, Q 3.46, A 3.95, W 2.15, H 3.33, P 3.53
A18: C 2.25, Y 2.69, R 2.76, H 2.79, T 3.45, L 2.29, D 3.84, M 1.94, V 2.6, E 3.37, W 2.43, F 1.76, N 3.35, P 3.57, I 2.21, S 3.4, Q 3.79, G 3.65, K 3.03
R23: D 3.95, F 1.93, Y 2.27, P 3.67, S 2.75, H 3.14, L 1.45, Q 3.29, I 1.71, V 1.44, N 4.2, A 2.03, E 4.24, G 3.16, C 2.78, W 2.03, K 3.29, T 2.74
E21: P 2.57, G 3.24, I 2.99, L 2.69, Q 2.45, K 2.48, S 2.35, F 1.7, C 2.37, M 1.46, A 2.42, W 3.91, Y 2.69, R 3.02, N 2.96, T 2.4, H 2.95, V 2.46
I22: Q 3.62, V 2.57, C 3.32, E 4.04, Y 3.35, L 3.11, S 3.97, P 4.54, K 4.29, N 4.22, M 3.29, F 2.18, A 3.82, G 3.66, T 4.01, H 4.06, R 4.03, D 4, W 2.92
L19: T 4.34, P 4.24, F 2.09, W 3.15, A 3.87, H 3.76, D 3.97, M 3.16, N 3.86, C 4.26, G 4.26, K 3.67, E 4.76, Y 3.41, S 4.41, V 3.47, I 3.03, Q 4.22, R 2.96
E9: Q 3.19, P 2.34, Y 1.74, C 2.23, N 2.56, L 1.64, H 2.71, A 2.4, D 2.69, I 2.51, G 2.43, R 2.51, V 2.48, T 3.02, F 2.09, W 2.38, M 1.76, K 2.69, S 2.97
K15: V 1.6, S 2.59, L 1.95, Y 1.81, T 2.66, N 2.88, A 2.26, C 2.52, E 3.44, R 2.81, F 2.58, D 3.59, P 3.46, M 1.87, G 2.82, H 3.14, W 2.06, I 2.4, Q 2.86
V13: L 2.93, P 3.29, T 3.77, E 3.35, Y 2.3, D 3.67, I 2.83, F 2.5, W 2.49, S 3.48, N 3.28, H 3.11, G 3.54, A 3.23, C 2.67, Q 3.47, K 3.27, R 3.08, M 2.73

Variants of: B2
Assay: as above
Conditions: c terminus: a fixed tail appended

Protein stability index of substitutions, site by site:
Y1: E 4.07, K 3.61, L 2.63, A 2.15, G 4.11, I 2.16, N 3.81, P 3.65, D 4.63, T 3.37, C 3.08, V 1.76, H 3.8, Q 4.13, M 3.06
